{
  "source": "patent US10590475B2",
  "about": "“Detection of immune cells, in particular T cells through DNA-methylation analysis of the genes CCR6 and BLR1” (Epiontis GmbH, priority 2010, dated 2020)",
  "test_system": "CCR6^+CD4^+ memory T cells",
  "assay": "CCR6 expression on CCR6+CD4+ memory T cells after TCR stimulation (anti-CD3/anti-CD28 beads)",
  "type": "cell-based, human",
  "conditions": "six days, TGF-ß 10 ng/ml",
  "description": "Buffy coats (DRK Blutspendedienst, Berlin, Germany) and peripheral blood samples were obtained from healthy donors after informed consent in accordance with local ethical committee approval. PBMCs were separated with a Ficoll-Hypaque gradient (Sigma-Aldrich). Cell surface antigens were analyzed by single-parameter or multi-parameter fluorescence-activated cell sorter (FACS®, BD Biosciences) analysis using the following monoclonal antibodies: PE-anti-CCR6 (11A9) and Alexa700-anti-CD4 (RPA-T4) (both from BD Biosciences). APC-anti-CD25 (BC96) was purchased from ebioscience. PE-Cy5-anti-CD8 (B9.11), PE-Cy5-anti-CD56 (N901) and FITC-anti-CD25 (B1.49.9) from Beckman Coulter. Antibodies generated in house (DRFZ, Berlin): FITC-anti-CD45RA (4G11), Alexa405-anti-CD4 (TT1) and Alexa405-anti-CD3 (OKT3). In some experiments, CCR6 expression was detected by indirect immunofluorescence using biotinylated CCR6 (11A9, BD Biosciences) followed by staining with APC-conjugated streptavidin (SouthernBiotech). […]\nMemory CD4^+CCR6^+ and CD4^+CCR6^− cells were stained with carboxyfluorescein succinimidyl ester (CFSE) and cultured either in CM containing magnetic beads as described above or 10 ng/ml IL-7 and 10 ng/ml IL-15 (R&D Systems). […] At the end of the cultures, cells were analyzed by flow cytometry and used for methylation analyses (see below).",
  "data": [
    {"molecule": "IL-4: cytokine reported to promote TCR-induced CCR6 down-regulation (protein, UniProt P05112 25-153, looked up) Interleukin-4: HKCDITLQEIIKTLNSLTEQKTLCTELTVTDIFAASKNTTEKETFCRAATVLRQFYSHHEKDTRCLGATAQQFHRHKQLIRFLKRLDRNLWGLAGLNSCPVKEANQSTLENFLERLKTIMREKYSKCSS", "values": [
      {"measurement": "effect on TCR-induced down-regulation of CCR6 expression", "value": "promoted"}
    ]}
  ]
}
